# In FireProtDB (doi:10.1021/bi034486i):
# B1: Thioredoxin-like protein 4A, P83876 (parent)
# chain: MSYMLPHLHNGWQVDQAILSEEDRVVVIRFGHDWDPTCMKMDEVLYSIAEKVKNFAVIYLVDITEVPDFNKMYELYDPCTVMFFFRNKHIMIDLGTGNNNKINWAMEDKQEMVDIIETVYRGARKGRGLVVSPKDYSTKYRY
# Variants of: B1
# Settings: Homo sapiens; pH 7.82; 20 °C; GdnHCl; CD; sodium phosphate 50 mM; structure 1QGV; whole UniProt chain shown
Variant,ddG of mutation (higher = less stable),denaturant m value,denaturant midpoint (higher = more stable),unfolding free energy
G126D,1.71 kcal/mol,2.78 kcal/mol/M,3.36 M,9.34 kcal/mol
